Changes are numbered by the printed parent chain.

This note sets out measurements from patent publication US20180312591A1 (ONCOSYNERGY, published 2018).

The target in the test is T1, human integrin β1 (human, UniProt P05556 21-798).
T1 construct: whole, on cells; the antibodies are described as anti-human integrin β1; also called CD29; ITGB1
Kind of test: competition FACS on Jurkat cells; competitor murine OS2966 (0.1875 µg/ml). How it is done:
Binding of composite human antibody variants (from Table 2) was assessed in a competition FACS assay with the OS2966 murine chimeric antibody (murine OS2966 Fab sliced to human Fc). In brief, a dilution series (three-fold) of chimeric or humanized antibodies starting from 25.0 μg/ml was premixed with a constant concentration of murine OS2966 (0.1875 μg/ml) in FACS buffer (1% BSA in 1×PBS pH 7.4) before mixing with 3×10⁵ Jurkat cells. […] After incubating on ice for 45 min, cells were washed, resuspended in 300 μl FACS buffer and analyzed on a Beckton Dickinson FACScalibur™. The geometric mean fluorescence intensity was plotted against antibody concentration (FIGS. 20-24).

B1: composite human antibody variant H1 (antibody, V domains shown)
VH: EVQLVQSGAEVKKPGSSVKVSCKASGYTFTGYILSWVRQAPGQGLEWIGWVDPEYGSTDSAEKFKKRVTITADISTSTAYMELSSLRSEDTATYFCTRYYDGYYRRWFAYWGQGTLVTVSS
VL: DIQMTQSPSSLSASVGDRVTITCLASEGISNNLAWYQQKPGKAPKLLIYGAHSLHDGVPDRFSGSGSGTDYTLKISRVEAEDVGVYYCQQGYKYPITFGGGTKVEIK
notes: also called VH5VK3
In the case of B1, the “relative IC50 (IC50 of test antibody / IC50 of chimeric antibody)” value was 0.88 ratio to chimeric antibody.

B2: composite human antibody variant H2 (antibody, V domains shown)
VH: B1 VH with V20I, V68A, I70L, M81I
VL: B1 VL with Y36H, K45Q, R77G, V78M, E79Q, A80P, V83E
notes: also called VH3VK1
For the molecule B2, the “relative IC50 (IC50 of test antibody / IC50 of chimeric antibody)” value is 0.97 ratio to chimeric antibody.

B3: composite human antibody variant H4 (antibody, V domains shown)
VH: B1 VH
VL: B1 VL with Y71F
notes: also called VH5VK4
Take B3: the “relative IC50 (IC50 of test antibody / IC50 of chimeric antibody)” value was 3.26 ratio to chimeric antibody.

B4: composite human antibody variant H15 (antibody, V domains shown)
VH: B1 VH with V20I, V68A, I70L, S77N, M81I
VL: B1 VL with Y36H
notes: also called VH2VK2
For the molecule B4, the “relative IC50 (IC50 of test antibody / IC50 of chimeric antibody)” value is 1.32 ratio to chimeric antibody.

B5: composite human antibody variant H11 (antibody, V domains shown)
VH: B1 VH with V20I, V68A, I70L, M81I
VL: B1 VL
notes: also called VH3VK3
For B5, the “relative IC50 (IC50 of test antibody / IC50 of chimeric antibody)” value is 1.58 ratio to chimeric antibody.

B6: composite human antibody variant H8 (antibody, V domains shown)
VH: B1 VH with V68A
VL: B1 VL with Y36H
notes: also called VH4VK2
On to B6, for which the “relative IC50 (IC50 of test antibody / IC50 of chimeric antibody)” value is 1.18 ratio to chimeric antibody.

B7: composite human antibody variant H13 (antibody, V domains shown)
VH: B1 VH with V20I, V68A, I70L, S77N, M81I
VL: B1 VL with Y71F
notes: also called VH2VK4
On to B7, for which the “relative IC50 (IC50 of test antibody / IC50 of chimeric antibody)” value is 2 ratio to chimeric antibody.

B8: composite human antibody variant H19 (antibody, V domains shown)
VH: B1 VH with A9P, V20I, R38K, V68A, I70L, S77N, M81I, E82Q
VL: B1 VL with Y36H, K45Q, R77G, V78M, E79Q, A80P, V83E
notes: also called VH1VK1
In the case of B8, the “relative IC50 (IC50 of test antibody / IC50 of chimeric antibody)” value was 1.13 ratio to chimeric antibody.

B9: composite human antibody variant H3 (antibody, V domains shown)
VH: B1 VH with V68A
VL: B1 VL with Y71F
notes: also called VH4VK4
For the molecule B9, the “relative IC50 (IC50 of test antibody / IC50 of chimeric antibody)” value was 2.7 ratio to chimeric antibody.

B10: composite human antibody variant H6 (antibody, V domains shown)
VH: B1 VH
VL: B1 VL with Y36H, K45Q, R77G, V78M, E79Q, A80P, V83E
notes: also called VH5VK1
Regarding B10, the “relative IC50 (IC50 of test antibody / IC50 of chimeric antibody)” value is 1.24 ratio to chimeric antibody.

B11: composite human antibody variant H10 (antibody, V domains shown)
VH: B1 VH with V20I, V68A, I70L, M81I
VL: B1 VL with Y71F
notes: also called VH3VK4
Regarding B11, the “relative IC50 (IC50 of test antibody / IC50 of chimeric antibody)” value is 2.76 ratio to chimeric antibody.

B12: composite human antibody variant H5 (antibody, V domains shown)
VH: B1 VH
VL: B1 VL with Y36H
notes: also called VH5VK2
As for B12, the “relative IC50 (IC50 of test antibody / IC50 of chimeric antibody)” value is 0.85 ratio to chimeric antibody.
